Results reported in article doi:10.1101/2020.07.27.222380, “NBS1-CtIP–Mediated DNA End Resection Regulates cGAS Binding to Micronuclei”.

Target: cGAS (human, UniProt Q8N884 1-522)
Test: EMSA; 5-10 uM cGAS, 50 fmol DNA, 1 mM Mg2+; 10 mM Hepes-NaOH pH 7.5, 100 mM NaCl, 1 mM DTT, 1 mM MgCl2, 20 ug/mL BSA, 25-50 fmol DNA, 25 C 30 min; native PAGE 5% or 6% (Methods), 0.5x TBE
Settings: protein: recombinant; tags: His (pET28a-His-hcGAS); label: 32P

Sequence of cGAS (Q8N884 whole entry): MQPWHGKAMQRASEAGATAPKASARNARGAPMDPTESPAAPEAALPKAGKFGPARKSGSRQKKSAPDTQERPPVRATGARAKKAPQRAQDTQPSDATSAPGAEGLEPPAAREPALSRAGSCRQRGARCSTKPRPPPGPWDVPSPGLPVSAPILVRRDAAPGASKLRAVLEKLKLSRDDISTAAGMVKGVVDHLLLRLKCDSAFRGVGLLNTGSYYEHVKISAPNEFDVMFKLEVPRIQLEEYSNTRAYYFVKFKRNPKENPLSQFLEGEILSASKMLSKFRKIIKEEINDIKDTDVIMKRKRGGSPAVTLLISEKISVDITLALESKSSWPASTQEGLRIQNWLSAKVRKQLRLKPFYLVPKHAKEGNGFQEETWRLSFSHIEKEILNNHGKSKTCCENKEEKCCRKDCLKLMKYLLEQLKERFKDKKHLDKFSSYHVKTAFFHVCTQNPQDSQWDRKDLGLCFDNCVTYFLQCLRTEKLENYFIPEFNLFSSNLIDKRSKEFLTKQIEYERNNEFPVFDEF

B1: ISRE 45-bp dsDNA (dsDNA)
DNA 1: TACAGATCTACTAGTGATCTATGACTGATCTGTACATGATCTACACCAAAGAGCATTGTAGATCATGTACAGATCAGTCATAGATCACTAGTAGATCTGTA
DNA 2: TACAGATCTACTAGTGATCTATGACTGATCTGTACATGATCTACAATGCTCTTTGGTGTAGATCATGTACAGATCAGTCATAGATCACTAGTAGATCTGTA
- binding result: binds
